Laboratory results reported in patent publication US20250076311A1 (Chugai, published 2025).
Changes are numbered by the printed parent chain. One block for each binder: values may come before it.

What was measured:
[1] = target: T1, cynomolgus monkey FcγRIIIaS extracellular domain with C-terminal His-tag (cynomolgus monkey, UniProt Q8SPW2 21-206 at identity 1.00)); assay: SPR, KD(SG1)/KD(variant)
T1 construct: also called cyno FcgRIIIaS; cynoFcγRIIIaS
T1 chain: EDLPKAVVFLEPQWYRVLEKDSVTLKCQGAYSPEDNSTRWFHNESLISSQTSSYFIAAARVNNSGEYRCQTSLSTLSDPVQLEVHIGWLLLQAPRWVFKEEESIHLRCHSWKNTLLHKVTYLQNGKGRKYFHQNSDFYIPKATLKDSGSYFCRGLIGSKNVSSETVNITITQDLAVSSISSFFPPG
Description: (§1) The kinetic analysis of interactions between these antibodies and FcγR was carried out using BIACORE® T200 or BIACORE® 4000 (GE Healthcare). HBS-EP+ (GE Healthcare) was used as the running buffer, and the measurement temperature was set to 25° C. […] After the measurement, the antibody captured on the chip was washed off by allowing reaction with 10 mM glycine-HCl, pH1.5 and 25 mM NaOH so that the chip was regenerated and used repeatedly. The sensorgrams obtained as measurement results were analyzed by the 1:1 Langmuir binding model using the BIACORE® Evaluation Software to calculate the binding rate constant ka (L/mol/s) and dissociation rate constant kd (1/s), and the dissociation constant KD (mol/L) was calculated from these values. […] Regarding such interactions, KD values were calculated using the following 1:1 binding model described in BIACORE® T100 Software Handbook BR1006-48 Edition AE.

[2] = target: T1, cynomolgus monkey FcγRIIIaS …; assay: SPR, antibody captured, FcγR analyte
Description: as §1

[3] = target: T2, cynomolgus monkey FcγRIIa2 extracellular domain, His-tagged (cynomolgus monkey); assay: SPR Biacore, KD(SG1)/KD(variant)
T2 construct: also called cyno FcγRIIa2; cynoFcgRIIa2; not shown: C-terminal His-tag
T2 chain: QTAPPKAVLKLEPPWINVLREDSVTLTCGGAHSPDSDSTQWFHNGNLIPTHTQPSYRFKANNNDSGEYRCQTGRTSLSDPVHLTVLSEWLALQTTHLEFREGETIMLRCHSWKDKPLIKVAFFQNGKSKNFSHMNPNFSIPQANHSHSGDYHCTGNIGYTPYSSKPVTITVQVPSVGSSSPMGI
Description: as §1

[4] = target: T3, cynomolgus monkey FcγRIIa1 extracellular domain, His-tagged (cynomolgus monkey); assay: SPR Biacore, antibody captured, FcgR analyte
T3 construct: also called cyno FcγRIIa1; cynoFcgRIIa1; not shown: C-terminal His-tag
T3 chain: T2 chain with T95P, A121T, K127I, S128A, N130K, N135D, Q142R

[5] = target: T4, human FcγRIIb extracellular domain, His-tagged (human, UniProt P31994 43-217); assay: SPR Biacore, antibody captured, FcgR analyte
T4 construct: also called FcgRIIb (human); not shown: C-terminal His-tag
T4 sequence: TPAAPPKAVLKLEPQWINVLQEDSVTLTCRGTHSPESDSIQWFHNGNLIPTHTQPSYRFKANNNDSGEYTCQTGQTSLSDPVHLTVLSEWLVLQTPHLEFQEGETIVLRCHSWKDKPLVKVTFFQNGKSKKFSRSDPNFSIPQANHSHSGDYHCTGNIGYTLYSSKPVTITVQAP

[6] = target: T5, cynomolgus monkey FcγRIIa1 extracellular domain with C-terminal His-tag (cynomolgus monkey); assay: SPR (BIACORE); KD of SG1 / KD of variant
T5 construct: also called cyno FcgRIIa1; cynoFcγRIIa1; not shown: His-tag added to the C-terminus
T5 chain: T2 chain with T95P, A121T, K127I, S128A, N130K, N135D, Q142R

[7] = target: T6, cynomolgus monkey FcγRIIIaS extracellular domain with C-terminal His-tag (cynomolgus monkey, UniProt A3RFZ7 21-206 (rhesus entry)); assay: SPR (BIACORE); KD of SG1 / KD of variant
T6 construct: also called cyno FcgRIIIaS; cynoFcγRIIIaS; not shown: His-tag added to the C-terminus

[8] = target: T5, cynomolgus monkey FcγRIIa1 …; assay: SPR (BIACORE), antibody captured, FcgR analyte
[9] = target: T7, cynomolgus monkey FcγRIIa3 extracellular domain with C-terminal His-tag (cynomolgus monkey); assay: SPR (BIACORE), antibody captured, FcgR analyte
T7 construct: also called cyno FcgRIIa3; cynoFcγRIIa3; not shown: His-tag added to the C-terminus
T7 chain: T2 chain with K127I, N130K, H133P, Q142R

[10] = target: T6, cynomolgus monkey FcγRIIIaS …; assay: SPR (BIACORE), antibody captured, FcgR analyte
[11] = target: T8, cynomolgus monkey FcγRIIa3 extracellular domain, His-tagged (cynomolgus monkey); assay: SPR Biacore, KD(SG1)/KD(variant)
T8 construct: also called cyno FcγRIIa3; cynoFcgRIIa3; not shown: C-terminal His-tag
T8 chain: T2 chain with K127I, N130K, H133P, Q142R
Description: as §1

[12] = target: T9, human FcγRIIaR extracellular domain, His-tagged (human, UniProt P12318 34-217); assay: SPR Biacore, KD(SG1)/KD(variant)
T9 construct: also called human FcγRIIa (type R); FcgRIIaR; not shown: C-terminal His-tag
T9 chain: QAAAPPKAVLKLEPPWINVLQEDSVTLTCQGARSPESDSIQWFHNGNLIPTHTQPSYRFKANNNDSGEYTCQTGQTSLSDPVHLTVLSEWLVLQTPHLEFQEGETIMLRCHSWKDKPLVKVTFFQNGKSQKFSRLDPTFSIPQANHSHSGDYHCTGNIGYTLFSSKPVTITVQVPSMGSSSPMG
Description: as §1

[13] = target: T10, cynomolgus monkey FcγRIIa1 extracellular domain with C-terminal His-tag (cynomolgus monkey); assay: SPR (Biacore), antibody captured, FcgR as analyte
T10 construct: also called cyno FcgRIIa1; cynoFcγRIIa1
T10 chain: T2 chain with T95P, A121T, K127I, S128A, N130K, N135D, Q142R
Description: as §1

[14] = target: T11, human FcγRIIIaV extracellular domain with C-terminal His-tag (human, UniProt P08637 17-208); assay: SPR (Biacore), antibody captured, FcgR as analyte
T11 construct: also called human FcgRIIIaV
Description: as §1

[15] = target: T12, cynomolgus monkey FcγRIIb extracellular domain, His-tagged (cynomolgus monkey); assay: SPR Biacore, KD(SG1)/KD(variant)
T12 construct: also called cyno FcγRIIb; cynoFcγRIIb; not shown: C-terminal His-tag
T12 chain: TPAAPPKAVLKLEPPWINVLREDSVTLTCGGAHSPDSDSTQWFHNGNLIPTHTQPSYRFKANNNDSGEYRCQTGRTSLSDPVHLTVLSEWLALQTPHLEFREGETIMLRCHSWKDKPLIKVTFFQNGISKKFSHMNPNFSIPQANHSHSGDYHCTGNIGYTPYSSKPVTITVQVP
Description: as §1

[16] = target: T2, cynomolgus monkey FcγRIIa2 …; assay: SPR Biacore, antibody captured, FcgR analyte
[17] = target: T3, cynomolgus monkey FcγRIIa1 …; assay: SPR Biacore, KD(SG1)/KD(variant)
Description: as §1

[18] = target: T4, human FcγRIIb extracellular domain, …; assay: SPR Biacore, KD(SG1)/KD(variant)
Description: as §1

T11 sequence (P08637 17-208 F176V): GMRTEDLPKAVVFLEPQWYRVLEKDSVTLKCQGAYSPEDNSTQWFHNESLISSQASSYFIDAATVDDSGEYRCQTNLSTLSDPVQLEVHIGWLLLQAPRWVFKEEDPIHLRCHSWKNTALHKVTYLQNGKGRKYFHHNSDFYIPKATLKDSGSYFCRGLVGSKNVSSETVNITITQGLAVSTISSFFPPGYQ

B2: M103205H795-MY011/M103202L889-SK1 (antibody, human IgG1, kappa, name in EU numbering)
heavy: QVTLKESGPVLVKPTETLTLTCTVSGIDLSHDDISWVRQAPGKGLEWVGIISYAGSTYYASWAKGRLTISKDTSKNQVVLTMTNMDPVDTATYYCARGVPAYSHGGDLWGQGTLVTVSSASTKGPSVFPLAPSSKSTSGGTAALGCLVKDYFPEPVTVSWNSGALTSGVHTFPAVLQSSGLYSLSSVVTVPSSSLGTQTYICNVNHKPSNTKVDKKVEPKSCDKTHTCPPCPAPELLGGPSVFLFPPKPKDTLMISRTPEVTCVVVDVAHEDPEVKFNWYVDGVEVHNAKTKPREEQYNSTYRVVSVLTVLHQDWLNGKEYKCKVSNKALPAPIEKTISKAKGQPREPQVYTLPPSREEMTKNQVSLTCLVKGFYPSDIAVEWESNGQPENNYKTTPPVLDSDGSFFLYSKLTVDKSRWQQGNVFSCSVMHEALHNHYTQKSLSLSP
light: DIVMTQSPATLSLSPGERATLSCTSSQSVYHANWLSWFQQKPGQPPKLLIYWASTLAYGVPSRFSGSGSGTDFTLTISSLQPEDAATYYCAGGYGGGRYAFGQGTKVEIKRTVAAPSVFIFPPSDEQLKSGTASVVCLLNNFYPREAKVQWKVDNALQSGNSQESVTEQDSKDSTYSLSSTLTLSKADYEKHKVYACEVTHQGLSSPVTKSFNRGEC
notes: Substitution introduced into M103205H795-SG1; EU numbering
KD fold (SG1 = 1) [3]: 1.6 fold
Kd [4]: 2300 nM

B5: M103205H795-MY042/M103202L889-SK1 (antibody, human IgG1, kappa, name in EU numbering)
heavy: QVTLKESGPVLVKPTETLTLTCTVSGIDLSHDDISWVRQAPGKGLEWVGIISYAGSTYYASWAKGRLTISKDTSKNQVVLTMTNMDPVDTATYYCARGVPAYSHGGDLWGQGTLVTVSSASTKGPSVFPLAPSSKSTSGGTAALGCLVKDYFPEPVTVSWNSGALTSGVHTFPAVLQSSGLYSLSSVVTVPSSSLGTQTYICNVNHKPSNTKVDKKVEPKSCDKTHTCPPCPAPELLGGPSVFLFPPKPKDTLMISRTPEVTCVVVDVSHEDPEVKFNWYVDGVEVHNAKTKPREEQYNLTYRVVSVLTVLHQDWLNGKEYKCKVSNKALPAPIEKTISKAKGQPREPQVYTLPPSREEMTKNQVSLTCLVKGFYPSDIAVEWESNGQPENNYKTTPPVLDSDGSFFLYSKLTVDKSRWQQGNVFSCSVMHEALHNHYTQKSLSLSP
light: B2 light
notes: as for B2
Kd [4]: 510 nM

B7: M103205H795-MY048/M103202L889-SK1 (antibody, human IgG1, kappa, name in EU numbering)
heavy: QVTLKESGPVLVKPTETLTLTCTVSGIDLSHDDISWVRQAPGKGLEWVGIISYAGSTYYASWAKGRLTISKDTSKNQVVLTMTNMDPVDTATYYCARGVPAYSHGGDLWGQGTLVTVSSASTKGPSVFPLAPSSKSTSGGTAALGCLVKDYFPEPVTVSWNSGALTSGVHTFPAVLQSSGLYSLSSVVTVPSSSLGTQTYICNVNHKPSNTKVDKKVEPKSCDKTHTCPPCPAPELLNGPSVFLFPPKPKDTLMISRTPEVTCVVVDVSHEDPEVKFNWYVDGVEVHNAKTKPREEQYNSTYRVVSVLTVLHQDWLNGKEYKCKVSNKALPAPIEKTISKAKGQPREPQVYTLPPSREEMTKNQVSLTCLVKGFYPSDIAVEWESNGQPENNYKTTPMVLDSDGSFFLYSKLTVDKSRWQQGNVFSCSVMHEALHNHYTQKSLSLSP
light: B2 light
notes: Fc variant of MS1032LO06-SG1; positions in EU numbering
KD fold (SG1 = 1) [6]: 2.5 fold
KD fold (SG1 = 1) [7]: 0.07 fold
Kd [8]: 1400 nM
Kd [9]: 7000 nM
Kd [10]: 5400 nM

B8: M103205H795-MY052/M103202L889-SK1 (antibody, human IgG1, kappa, name in EU numbering)
heavy: QVTLKESGPVLVKPTETLTLTCTVSGIDLSHDDISWVRQAPGKGLEWVGIISYAGSTYYASWAKGRLTISKDTSKNQVVLTMTNMDPVDTATYYCARGVPAYSHGGDLWGQGTLVTVSSASTKGPSVFPLAPSSKSTSGGTAALGCLVKDYFPEPVTVSWNSGALTSGVHTFPAVLQSSGLYSLSSVVTVPSSSLGTQTYICNVNHKPSNTKVDKKVEPKSCDKTHTCPPCPAPELLNGPSVFLFPPKPKDTLMISRTPEVTCVVVDVSEEDPEVKFNWYVDGVEVHNAKTKPREEQYNSTYRVVSVLTVLHQDWLNGKEYKCKVSNKALPAPIEKTISKAKGQPREPQVYTLPPSREEMTKNQVSLTCLVKGFYPSDIAVEWESNGQPENNYKTTPMVLDSDGSFFLYSKLTVDKSRWQQGNVFSCSVMHEALHNHYTQKSLSLSP
light: B2 light
notes: as for B7
KD fold (SG1 = 1) [6]: 2.5 fold
KD fold (SG1 = 1) [7]: 0.24 fold
Kd [10]: 1500 nM

B9: M103205H795-MY040/M103202L889-SK1 (antibody, human IgG1, kappa, name in EU numbering)
heavy: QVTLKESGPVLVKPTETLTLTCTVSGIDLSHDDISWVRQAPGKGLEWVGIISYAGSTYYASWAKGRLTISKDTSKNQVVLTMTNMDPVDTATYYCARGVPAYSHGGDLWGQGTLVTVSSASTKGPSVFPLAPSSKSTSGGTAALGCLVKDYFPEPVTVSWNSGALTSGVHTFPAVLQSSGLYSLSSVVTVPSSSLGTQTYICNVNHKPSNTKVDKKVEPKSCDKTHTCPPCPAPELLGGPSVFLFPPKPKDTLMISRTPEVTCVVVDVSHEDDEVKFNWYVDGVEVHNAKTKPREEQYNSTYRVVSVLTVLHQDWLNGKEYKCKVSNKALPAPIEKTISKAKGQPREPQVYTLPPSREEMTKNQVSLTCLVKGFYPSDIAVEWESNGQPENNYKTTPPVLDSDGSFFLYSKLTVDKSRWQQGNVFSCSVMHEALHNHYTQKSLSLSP
light: B2 light
notes: as for B2
KD fold (SG1 = 1) [11]: 3.9 fold
KD fold (SG1 = 1) [12]: 0.9 fold
Kd [4]: 5500 nM

B12: M103205H795-MY061/M103202L889-SK1 (antibody, human IgG1, kappa, name in EU numbering)
heavy: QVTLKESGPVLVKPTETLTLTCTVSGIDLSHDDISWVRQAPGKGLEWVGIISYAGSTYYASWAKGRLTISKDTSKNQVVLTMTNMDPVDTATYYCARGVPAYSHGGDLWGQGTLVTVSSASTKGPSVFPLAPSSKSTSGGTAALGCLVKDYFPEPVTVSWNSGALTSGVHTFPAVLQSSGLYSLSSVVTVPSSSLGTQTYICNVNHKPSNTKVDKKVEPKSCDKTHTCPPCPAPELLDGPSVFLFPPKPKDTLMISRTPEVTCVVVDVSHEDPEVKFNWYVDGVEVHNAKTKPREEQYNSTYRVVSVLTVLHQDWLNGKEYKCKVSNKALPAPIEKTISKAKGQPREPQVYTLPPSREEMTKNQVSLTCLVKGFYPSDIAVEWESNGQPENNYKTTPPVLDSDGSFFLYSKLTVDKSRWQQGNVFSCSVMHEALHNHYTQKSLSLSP
light: B2 light
notes: as for B2
KD fold (SG1 = 1) [15]: 0.4 fold
KD fold (SG1 = 1) [12]: 0.8 fold
Kd [16]: 6800 nM

B13: M103205H795-MY013/M103202L889-SK1 (antibody, human IgG1, kappa, name in EU numbering)
heavy: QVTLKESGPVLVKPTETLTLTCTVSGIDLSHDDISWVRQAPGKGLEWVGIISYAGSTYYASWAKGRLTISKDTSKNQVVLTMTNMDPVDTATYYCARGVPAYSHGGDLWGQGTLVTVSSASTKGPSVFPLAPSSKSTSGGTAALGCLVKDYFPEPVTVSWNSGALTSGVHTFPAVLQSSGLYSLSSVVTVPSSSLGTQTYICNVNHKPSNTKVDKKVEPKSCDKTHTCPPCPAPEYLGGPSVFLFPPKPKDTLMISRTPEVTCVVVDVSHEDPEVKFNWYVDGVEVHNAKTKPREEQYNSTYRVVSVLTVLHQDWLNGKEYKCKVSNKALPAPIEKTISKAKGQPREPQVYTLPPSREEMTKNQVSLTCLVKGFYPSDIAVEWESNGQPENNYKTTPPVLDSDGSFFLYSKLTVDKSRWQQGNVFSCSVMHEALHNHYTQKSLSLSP
light: B2 light
notes: as for B2
KD fold (SG1 = 1) [15]: 0.5 fold

B14: M103205H795-MY070/M103202L889-SK1 (antibody, human IgG1, kappa, name in EU numbering)
heavy: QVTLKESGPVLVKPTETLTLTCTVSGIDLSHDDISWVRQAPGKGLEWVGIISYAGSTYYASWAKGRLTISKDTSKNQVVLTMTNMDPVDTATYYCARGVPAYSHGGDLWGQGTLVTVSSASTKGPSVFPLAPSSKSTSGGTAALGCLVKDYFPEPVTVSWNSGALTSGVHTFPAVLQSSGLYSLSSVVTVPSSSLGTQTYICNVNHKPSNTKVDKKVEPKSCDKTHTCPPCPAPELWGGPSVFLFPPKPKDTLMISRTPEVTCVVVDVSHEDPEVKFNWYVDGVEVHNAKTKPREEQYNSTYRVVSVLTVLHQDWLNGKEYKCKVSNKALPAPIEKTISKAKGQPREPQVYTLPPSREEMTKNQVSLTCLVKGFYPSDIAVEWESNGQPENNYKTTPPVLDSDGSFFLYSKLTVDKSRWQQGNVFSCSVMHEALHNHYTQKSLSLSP
light: B2 light
notes: as for B2
KD fold (SG1 = 1) [17]: 1 fold
Kd [16]: 2800 nM

Continued, values first:

KD fold (SG1 = 1) [1]: 0.24 fold
Kd [2]: 1500 nM
B1: MS1032LO06-MY335 (antibody, human IgG1, kappa)
heavy: B8 heavy with N238T, E270D, Q313R, A332K, M398P, D415K
light: B2 light
notes: also called M103205H795-MY335; copies: 2 + 2

Kd [5]: 3200 nM
B3: M103205H795-MY196/M103202L889-SK1 (antibody, human IgG1, kappa, name in EU numbering)
heavy: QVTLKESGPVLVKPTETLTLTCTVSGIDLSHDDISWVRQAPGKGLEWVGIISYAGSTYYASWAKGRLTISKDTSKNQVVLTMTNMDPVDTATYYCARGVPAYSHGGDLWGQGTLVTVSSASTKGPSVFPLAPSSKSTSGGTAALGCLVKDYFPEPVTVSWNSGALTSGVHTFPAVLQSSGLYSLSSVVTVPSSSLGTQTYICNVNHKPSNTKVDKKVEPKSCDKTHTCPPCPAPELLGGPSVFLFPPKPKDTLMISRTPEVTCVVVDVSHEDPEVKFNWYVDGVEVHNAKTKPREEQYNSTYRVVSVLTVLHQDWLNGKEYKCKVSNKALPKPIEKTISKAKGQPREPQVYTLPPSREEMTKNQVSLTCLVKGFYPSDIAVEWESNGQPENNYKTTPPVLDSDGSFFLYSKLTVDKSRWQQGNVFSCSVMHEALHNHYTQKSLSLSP
light: B2 light
notes: as for B2

KD fold (SG1 = 1) [3]: 3.9 fold
B4: M103205H795-MY073/M103202L889-SK1 (antibody, human IgG1, kappa, name in EU numbering)
heavy: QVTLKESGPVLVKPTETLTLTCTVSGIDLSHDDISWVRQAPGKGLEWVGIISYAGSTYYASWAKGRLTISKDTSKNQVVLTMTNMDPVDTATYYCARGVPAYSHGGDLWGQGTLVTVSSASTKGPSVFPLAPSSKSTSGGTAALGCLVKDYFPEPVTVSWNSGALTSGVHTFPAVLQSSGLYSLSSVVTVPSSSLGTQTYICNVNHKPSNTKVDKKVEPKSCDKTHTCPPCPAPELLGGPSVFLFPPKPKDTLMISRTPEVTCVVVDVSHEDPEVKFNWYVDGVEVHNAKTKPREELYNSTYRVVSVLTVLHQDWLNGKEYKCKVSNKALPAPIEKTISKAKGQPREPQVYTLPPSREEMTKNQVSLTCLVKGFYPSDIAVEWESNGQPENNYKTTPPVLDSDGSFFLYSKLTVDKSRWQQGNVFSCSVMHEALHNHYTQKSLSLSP
light: B2 light
notes: as for B2

KD fold (SG1 = 1) [1]: 0.09 fold
Kd [2]: 3900 nM
B6: MS1032LO06-PK2 (antibody, human IgG1, kappa)
heavy: B8 heavy with A332K, S402R, D415K
light: B2 light
notes: also called M103205H795-PK2; copies: 2 + 2

Kd [13]: 1200 nM
Kd [14]: 2700 nM
B10: M103205H795-MY536 / M103202L889-SK1 (antibody, human IgG1, kappa, name in EU numbering)
heavy: B8 heavy with A233G, L236W, N238T, S241V, E270D, A332K, M398P
light: B2 light

Kd [13]: 1500 nM
Kd [14]: 5200 nM
B11: M103205H795-MY535 / M103202L889-SK1 (antibody, human IgG1, kappa, name in EU numbering)
heavy: B8 heavy with A233G, L236W, N238T, E270D, A332K, M398P
light: B2 light

KD fold (SG1 = 1) [11]: 1.8 fold
KD fold (SG1 = 1) [18]: 1.5 fold
Kd [5]: 3100 nM
B15: M103205H795-MY071/M103202L889-SK1 (antibody, human IgG1, kappa, name in EU numbering)
heavy: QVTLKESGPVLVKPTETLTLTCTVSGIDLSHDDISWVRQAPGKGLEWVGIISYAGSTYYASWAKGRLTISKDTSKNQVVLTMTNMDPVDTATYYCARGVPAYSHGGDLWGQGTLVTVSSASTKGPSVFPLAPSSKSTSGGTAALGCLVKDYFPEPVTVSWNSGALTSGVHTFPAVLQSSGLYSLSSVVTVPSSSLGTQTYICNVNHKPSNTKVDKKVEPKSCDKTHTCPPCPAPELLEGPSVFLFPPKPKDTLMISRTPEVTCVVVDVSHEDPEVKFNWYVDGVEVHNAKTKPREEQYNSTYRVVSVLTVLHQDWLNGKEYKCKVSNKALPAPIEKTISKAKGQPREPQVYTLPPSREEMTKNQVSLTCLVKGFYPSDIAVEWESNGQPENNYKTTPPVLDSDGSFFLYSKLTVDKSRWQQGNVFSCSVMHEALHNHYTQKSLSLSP
light: B2 light
notes: as for B2

KD fold (SG1 = 1) [1]: 0.07 fold
Kd [2]: 4900 nM
B16: MS1032LO06-MY344 (antibody, human IgG1, kappa)
heavy: B8 heavy with E270D, Q297L, Q313R, A332K, M398P, D415K
light: B2 light
notes: also called M103205H795-MY344; copies: 2 + 2
